Laboratory results published in PMC3253074, “βB1-Crystallin: Thermodynamic Profiles of Molecular Interactions” (PLoS ONE, 2012).

B1: murine βB1-crystallin, wild type recombinant (natural protein, UniProt Q9WVJ5 1-250, looked up)
chain: MSQAAKASATTAVNPGPDGKGKGAPSTGPAPAPGPTPVPASVPRPAAKVGDLPPGSYRLIVFEQENFQGRRVEFSGECLNLGDRGFDRVRSLIVVSGPWVAFEQSAFRGEMFVLEKGEYPRWDTWTSSYRSDRLMSFRPIRMDSQEHKICLFEGANFKGNTMEIQEDDVPSLWVYGFCDRVGSITVSGGTWVGYQYPGYRGYQYLLEPGDFRHWNEWGAFQPQMQAVRRLRDRQWHQEGCFPVLTAEPPK
notes: βB1-crystallin, mouse, wild type recombinant; monomer printed as 28 kDa; source: E. coli, purified (ion-exchange and size-exclusion chromatography)

Assays:
[1] = biological target: the molecule itself; test: AUC; sedimentation equilibrium at 5°C increments over 5-30°C, 0.5 mg/ml, Buffer A pH 7.5; enthalpy from van't Hoff plots of ln(Kd/Co) against 1/T; dimer to monomers (βB1, βA3), heterotetramer to heterodimers (βB1/βA3)
[2] = biological target: the molecule itself; test: as above; remark: listed apart in the source
[3] = biological target: the molecule itself; test: AUC; sedimentation equilibrium, 18,500 rpm, 10 °C, Buffer A (50 mM Tris-HCl, 1 mM EDTA, 0.15 M NaCl, 1 mM TCEP, pH 7.5), 0.5 mg/ml; dimer to monomers
[4] = biological target: the molecule itself; test: AUC; sedimentation equilibrium, 18,500 rpm, 15 °C, Buffer A (50 mM Tris-HCl, 1 mM EDTA, 0.15 M NaCl, 1 mM TCEP, pH 7.5), 0.5 mg/ml; dimer to monomers
[5] = biological target: the molecule itself; test: AUC; sedimentation equilibrium, 18,500 rpm, 30 °C, Buffer A (50 mM Tris-HCl, 1 mM EDTA, 0.15 M NaCl, 1 mM TCEP, pH 7.5), 0.5 mg/ml; dimer to monomers
[6] = biological target: the molecule itself; test: AUC; sedimentation equilibrium, 18,500 rpm, 20 °C, Buffer A (50 mM Tris-HCl, 1 mM EDTA, 0.15 M NaCl, 1 mM TCEP, pH 7.5), 0.5 mg/ml; dimer to monomers
[7] = biological target: the molecule itself; test: AUC; sedimentation equilibrium, 18,500 rpm, 5 °C, Buffer A (50 mM Tris-HCl, 1 mM EDTA, 0.15 M NaCl, 1 mM TCEP, pH 7.5), 0.5 mg/ml; dimer to monomers
[8] = biological target: the molecule itself; test: AUC; sedimentation equilibrium, 18,500 rpm, 25 °C, Buffer A (50 mM Tris-HCl, 1 mM EDTA, 0.15 M NaCl, 1 mM TCEP, pH 7.5), 0.5 mg/ml; dimer to monomers
[9] = biological target: B1; test: SEC; equimolar mixture (~20 µM each) incubated 24 h, Superdex 75 HR10/30, Buffer A (50 mM Tris-HCl, 1 mM EDTA, 0.15 M NaCl, 1 mM TCEP, pH 7.5), 0.5 ml/min; conditions: both partners purified
[10] = biological target: the molecule itself; test: AUC; sedimentation equilibrium of the equimolar βB1/βA3 mixture, 18,500 rpm, 16 h, 20°C, Buffer A pH 7.5; heterotetramer to heterodimers
[11] = biological target: the molecule itself; test: AUC; sedimentation equilibrium of the equimolar βB1/βA3 mixture, 18,500 rpm, 10 °C, Buffer A pH 7.5, 0.5 mg/ml; heterotetramer to heterodimers
[12] = biological target: the molecule itself; test: AUC; sedimentation equilibrium of the equimolar βB1/βA3 mixture, 18,500 rpm, 30 °C, Buffer A pH 7.5, 0.5 mg/ml; heterotetramer to heterodimers
[13] = biological target: the molecule itself; test: AUC; sedimentation equilibrium of the equimolar βB1/βA3 mixture, 18,500 rpm, 25 °C, Buffer A pH 7.5, 0.5 mg/ml; heterotetramer to heterodimers
[14] = biological target: the molecule itself; test: AUC; sedimentation equilibrium of the equimolar βB1/βA3 mixture, 18,500 rpm, 5 °C, Buffer A pH 7.5, 0.5 mg/ml; heterotetramer to heterodimers
[15] = biological target: the molecule itself; test: AUC; sedimentation equilibrium of the equimolar βB1/βA3 mixture, 18,500 rpm, 15 °C, Buffer A pH 7.5, 0.5 mg/ml; heterotetramer to heterodimers

Binder	dH (van't Hoff, ΔCp = 0) [1]	dH (van't Hoff, ΔCp nonzero) [1]	stoichiometry N [2]	Kd [3]	Kd [4]	Kd [5]	Kd [6]	Kd [7]	Kd [8]	further results
B1	-13.3 ± 5.6 kcal/mol	-21.2 ± 4.6 kcal/mol	2	–	–	–	–	–	–	–
murine βB1-crystallin (natural protein, UniProt Q9WVJ5 1-250, looked up, βB1-crystallin, mouse, wild type recombinant; monomer 28 kDa as printed; source: E. coli, purified (ion-exchange and size-exclusion chromatography)) MSQAAKASATTAVNPGPDGKGKGAPSTGPAPAPGPTPVPASVPRPAAKVGDLPPGSYRLIVFEQENFQGRRVEFSGECLNLGDRGFDRVRSLIVVSGPWVAFEQSAFRGEMFVLEKGEYPRWDTWTSSYRSDRLMSFRPIRMDSQEHKICLFEGANFKGNTMEIQEDDVPSLWVYGFCDRVGSITVSGGTWVGYQYPGYRGYQYLLEPGDFRHWNEWGAFQPQMQAVRRLRDRQWHQEGCFPVLTAEPPK	–	–	–	1.64 µM	1.91 µM	17.6 µM	4.71 µM	3.99 µM	12.6 µM	–
human βA3-crystallin, wild type recombinant (natural protein, UniProt P05813 1-215, looked up, βA3-crystallin, human, wild type recombinant; monomer printed as 25 kDa; source: E. coli, purified (ion-exchange and size-exclusion chromatography)) METQAEQQELETLPTTKMAQTNPTPGSLGPWKITIYDQENFQGKRMEFTSSCPNVSERSFDNVRSLKVESGAWIGYEHTSFCGQQFILERGEYPRWDAWSGSNAYHIERLMSFRPICSANHKESKMTIFEKENFIGRQWEISDDYPSLQAMGWFNNEVGSMKIQSGAWVCYQYPGYRGYQYILECDHHGGDYKHWREWGSHAQTSQIQSIRRIQQ	8 ± 3 kcal/mol	7.2 ± 2.5 kcal/mol	2	–	–	–	–	–	–	binding result [9]: binds
βB1/βA3 heterodimer (murine βB1 with human βA3), the unit of the heterodimer-heterotetramer equilibrium (complex, murine | human, βB1-crystallin, mouse, wild type recombinant, as m1; βA3-crystallin, human, wild type recombinant, as m2; The heterodimer is the unit of the best-fit model; also called βB1/βA3 complex; [βB1/βA3]4 (the tetramer); source: equimolar mixture (~20 µM each) of the purified E. coli proteins, incubated 24 h) chain 1: MSQAAKASATTAVNPGPDGKGKGAPSTGPAPAPGPTPVPASVPRPAAKVGDLPPGSYRLIVFEQENFQGRRVEFSGECLNLGDRGFDRVRSLIVVSGPWVAFEQSAFRGEMFVLEKGEYPRWDTWTSSYRSDRLMSFRPIRMDSQEHKICLFEGANFKGNTMEIQEDDVPSLWVYGFCDRVGSITVSGGTWVGYQYPGYRGYQYLLEPGDFRHWNEWGAFQPQMQAVRRLRDRQWHQEGCFPVLTAEPPK chain 2: METQAEQQELETLPTTKMAQTNPTPGSLGPWKITIYDQENFQGKRMEFTSSCPNVSERSFDNVRSLKVESGAWIGYEHTSFCGQQFILERGEYPRWDAWSGSNAYHIERLMSFRPICSANHKESKMTIFEKENFIGRQWEISDDYPSLQAMGWFNNEVGSMKIQSGAWVCYQYPGYRGYQYILECDHHGGDYKHWREWGSHAQTSQIQSIRRIQQ	-24.5 ± 6.2 kcal/mol	-29.6 ± 8.1 kcal/mol	–	–	–	–	–	–	–	Kd [10]: 8.78 µM
βB1/βA3 heterodimer (murine βB1 with human βA3) (complex, murine | human, βB1-crystallin, mouse, wild type recombinant; as the chain of Wm1; βA3-crystallin, human, wild type recombinant; as the chain of Wm2; also called βB1/βA3 complex; source: equimolar mixture (~20 µM each) of βB1 and βA3 purified from E. coli, incubated at room temperature for 24 h) chain 1: MSQAAKASATTAVNPGPDGKGKGAPSTGPAPAPGPTPVPASVPRPAAKVGDLPPGSYRLIVFEQENFQGRRVEFSGECLNLGDRGFDRVRSLIVVSGPWVAFEQSAFRGEMFVLEKGEYPRWDTWTSSYRSDRLMSFRPIRMDSQEHKICLFEGANFKGNTMEIQEDDVPSLWVYGFCDRVGSITVSGGTWVGYQYPGYRGYQYLLEPGDFRHWNEWGAFQPQMQAVRRLRDRQWHQEGCFPVLTAEPPK chain 2: METQAEQQELETLPTTKMAQTNPTPGSLGPWKITIYDQENFQGKRMEFTSSCPNVSERSFDNVRSLKVESGAWIGYEHTSFCGQQFILERGEYPRWDAWSGSNAYHIERLMSFRPICSANHKESKMTIFEKENFIGRQWEISDDYPSLQAMGWFNNEVGSMKIQSGAWVCYQYPGYRGYQYILECDHHGGDYKHWREWGSHAQTSQIQSIRRIQQ	–	–	–	–	–	–	–	–	–	Kd [11]: 0.54 µM; Kd [12]: 22.1 µM; Kd [13]: 12.8 µM; Kd [14]: 1.21 µM; Kd [15]: 1.14 µM
human βA3-crystallin (natural protein, UniProt P05813 1-215, looked up, βA3-crystallin, human, wild type recombinant; monomer 25 kDa as printed; source: E. coli, purified (ion-exchange and size-exclusion chromatography)) METQAEQQELETLPTTKMAQTNPTPGSLGPWKITIYDQENFQGKRMEFTSSCPNVSERSFDNVRSLKVESGAWIGYEHTSFCGQQFILERGEYPRWDAWSGSNAYHIERLMSFRPICSANHKESKMTIFEKENFIGRQWEISDDYPSLQAMGWFNNEVGSMKIQSGAWVCYQYPGYRGYQYILECDHHGGDYKHWREWGSHAQTSQIQSIRRIQQ	–	–	–	6.47 µM	5.32 µM	2.07 µM	5.21 µM	11.8 µM	1.62 µM	–
